{"source": "patent US8993717B2", "about": "“Gadd45beta targeting agents” (Imperial Innovations Limited, priority 2009, dated 2015)", "target": "T1, Gadd45β/MKK7 interaction (Homo sapiens, UniProt O14733)", "T1 construct": "The GST-fused full-length kinase was coated for 16 h at 4° C., at a concentration of 42 nM; made in house", "T1 sequence (O14733 1-419)": "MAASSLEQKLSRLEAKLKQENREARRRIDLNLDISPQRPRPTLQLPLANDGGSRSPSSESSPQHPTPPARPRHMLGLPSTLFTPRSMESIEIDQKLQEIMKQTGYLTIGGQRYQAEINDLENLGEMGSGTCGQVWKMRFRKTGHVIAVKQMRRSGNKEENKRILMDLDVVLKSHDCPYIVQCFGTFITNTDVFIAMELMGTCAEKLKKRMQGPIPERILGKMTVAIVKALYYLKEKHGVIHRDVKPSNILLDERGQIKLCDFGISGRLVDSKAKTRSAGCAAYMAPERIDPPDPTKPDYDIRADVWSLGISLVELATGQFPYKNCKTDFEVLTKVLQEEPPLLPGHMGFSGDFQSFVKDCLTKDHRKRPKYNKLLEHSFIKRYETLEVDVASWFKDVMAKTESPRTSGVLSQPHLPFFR", "assay": "ELISA competition assay of biotin-hGadd45β binding to coated GST-MKK7", "conditions": "for inhibition of Gadd45β/MKK7 complex formation in ELISA competition assays: result in words", "protocol": "To evaluate the inhibitory properties of peptides, ELISA-based assays were performed. In these assays, a fusion protein of glutathione S-transferase (GST) and mitogen-activated protein kinase kinase 7 (MKK7) was coated onto wells of a 96-well plate, while biotinylated-hGadd45β was used in solution. hGadd45β was biotinylated using an EZ Link NHS-LC-biotin kit (Pierce, Rockford, Ill.), according to Tornatore et al. (Tornatore L., et al. (2008). J Mol Biol; 378:97-111).\nFirstly, the association between Gadd45β and MKK7 was investigated by ELISA assays as also reported in Tornatore et al. (Tornatore L., et al. (2008). J Mol Biol; 378:97-111). The GST-fused full-length kinase was coated for 16 h at 4° C., at a concentration of 42 nM in buffer A (25 mM Tris pH 7.5, 150 mM NaCl, 1 mM DTT and 1 mM EDTA) into wells of a 96-well microliter plate. Some wells were filled with buffer alone and were used as blanks. After incubation for 16 h at 4° C., the solutions were removed and the wells were filled with 350 μL of a 1% (w/v) solution of NFDM (Non Fat Dry Milk) in PBS (phosphate buffered saline). The plate was incubated for 1 h at 37° C. in the dark. After washing with buffer T-PBS (PBS with 0.004% (v/v) Tween detergent), the wells were filled with 100 μL of biotinylated-hGadd45β at concentrations ranging from 8.4 nM to 168 nM. Each data point was performed in triplicate. Following incubation for 1 hr in the dark at 37° C. the solutions were removed and the wells were again washed with T-PBS. Then 100 μL of a 1:10,000 dilution of horseradish peroxidase-conjugated streptavidin dissolved in buffer was added to each well and the plate incubated for 1 hr at 37° C. in the dark. After removal of the enzyme solution and washing, 100 μL of the chromogenic substrate o-phenylendiamine (0.4 mg/mL in 50 mM sodium phosphate-citrate buffer, containing 0.4 mg/mL of urea in hydrogen peroxide) was added and the colour was allowed to develop in the dark for 5 min. The reaction was stopped by adding 50 μL of 2.5 M H2SO4. The absorbance at 490 nm was measured in all wells and the values were averaged after subtracting the corresponding blanks. Bound protein was then detected as described above. The molar concentration of biotinylated-hGadd45β at which the half-maximal ELISA signal is detected corresponds to the dissociation constant (KD) (Friguet B, Chaffotte A F, Djavadi-Ohaniance L, Goldberg M E. J Immunol Methods. 1985 Mar. 18; 77 (2):305-19). Binding competition assays were performed by coating GST-MKK7 at 42 nM as described, a concentration of biotinylated-hGadd45β of 21 nM (pre-saturation conditions 1:0.5 mol/mol ratio) and, in a first test, using competitors at 21 nM. The binding of biotinylated hGadd45β to GST-MKK7 was analyzed in the presence of increasing amounts of competitor peptide (concentrations ranging from 0.01 nM to 100 nM), and the values obtained with the competitor were expressed as the percentage of the binding detected in the absence of competitor. […] According to the convention adopted in the table “L-Xaa” and “D-Xaa” refer to the L and D forms of amino acid Xaa.\nA simplified combinatorial peptide library (Marasco et al. 2008, Curr. Protein Pept. Sci. 9:447-67) was screened for antagonists of the Gadd45β/MKK7 interaction. This library contained a total of 12^4=20,736 different tetrapeptides formed by combinations of the following amino acid residues Gln (Q), Ser (S), Arg (R), Ala (A), Tyr (Y), Pro (P), Met (M), Cys (C), Phe (F), Leu (L), His (H), Asp (D), and was iteratively deconvoluted in four steps by ELISA competition assays using at each step coated MKK7 (42 nM), soluble-biotin-hGadd45β (21 nM) and each of the 12 sub-libraries (42 nM).", "key": {"[1]": {"conditions": "Table II, modified pure peptides"}, "[2]": {"conditions": "Table I, initial Elisa screening, coated MKK7 42 nM, biotin-hGadd45β 21 nM, competitor 21 nM, sub-libraries 42 nM"}}, "note": "Primed or numbered codes have the meaning given here. * marks the point of attachment. Benzoyl(3-OH,4-OMe) = COc1ccc(C(=O)*)cc1O; Fmoc = O=C(OCC1c2ccccc2-c2ccccc21)*; ClZ = O=C(OCc1ccccc1Cl)*; OMe′ = Asp methyl ester; Cbz = O=C(OCc1ccccc1)*; βAla = NCCC(=O)O", "data": [{"compound": "Benzoic acid-YDHQ-NH2", "values": [{"measurement": "% Inhibition of Gadd45β-MKK7 binding", "setting": "Table III, modified peptides", "value": 1, "unit": "%"}]}, {"compound": "3-OH—4MeO-Benzoid acid-YDHF-NH2 ({Benzoyl(3-OH,4-OMe)}-YDHF-NH2)", "values": [{"measurement": "% Inhibition of Gadd45β-MKK7 binding", "setting": "Table III, modified peptides", "value": 81, "unit": "%"}]}, {"compound": "3-OH—4MeO-Benzoid acid-YDHQ-NH2 ({Benzoyl(3-OH,4-OMe)}-YDHQ-NH2)", "values": [{"measurement": "% Inhibition of Gadd45β-MKK7 binding", "setting": "Table III, modified peptides", "value": 7, "unit": "%"}]}, {"compound": "Z-YD(OMe)HF-NH2 (Cbz-YD(OMe′)HF-NH2)", "values": [{"measurement": "% Inhibition of Gadd45β-MKK7 binding", "setting": "Table III, modified peptides", "value": 84, "unit": "%"}]}, {"compound": "Ac-WERW-NH2", "values": [{"measurement": "% Inhibition of Gadd45β-MKK7 binding", "setting": "[1]", "value": 69, "unit": "%"}]}, {"compound": "Ac-YDHF-NH2", "values": [{"measurement": "% Inhibition of Gadd45β-MKK7 binding", "setting": "[1]", "value": 94, "unit": "%"}, {"measurement": "inhibition of Gadd45β/MKK7 complex formation in ELISA competition assays", "value": "IC50s similar to those of DTPs"}]}, {"compound": "CC(=O)N[C@H](CC1CCCCC1)C(=O)N[C@H](CCCNC(=N)N)C(=O)N[C@H](Cc1ccccc1)C(N)=O", "note": "[Compound 20, Ac-Cha-Arg-Phe-NH2]", "values": [{"measurement": "IC50", "setting": "Table V, FIG. 3C, read-out: IC50 ELISA", "value": "> 5", "unit": "nM"}, {"measurement": "inhibition of Gadd45β/MKK7 complex formation in ELISA competition assays", "value": "inactive"}]}, {"compound": "Fmoc(βAla)2-YDHM-NH2 ({Fmoc-βAla-βAla}-YDHM-NH2; SMILES CSCC[C@H](NC(=O)[C@H](Cc1c[nH]cn1)NC(=O)[C@H](CC(=O)O)NC(=O)[C@H](Cc1ccc(O)cc1)NC(=O)CCNC(=O)CCNC(=O)OCC1c2ccccc2-c2ccccc21)C(N)=O)", "values": [{"measurement": "% Inhibition of Gadd45β-MKK7 binding", "setting": "[2]", "value": 14, "unit": "%"}]}, {"compound": "Ac-YEKF-NH2", "values": [{"measurement": "% Inhibition of Gadd45β-MKK7 binding", "setting": "[1]", "value": 64, "unit": "%"}]}, {"compound": "Ac-YEHW-NH2", "values": [{"measurement": "% Inhibition of Gadd45β-MKK7 binding", "setting": "[1]", "value": 64, "unit": "%"}]}, {"compound": "Ac-YDHQLys(Z)-NH2 (Ac-YDHQK(Cbz)-NH2; SMILES CC(=O)N[C@@H](Cc1ccc(O)cc1)C(=O)N[C@@H](CC(=O)O)C(=O)N[C@@H](Cc1c[nH]cn1)C(=O)N[C@@H](CCC(N)=O)C(=O)N[C@@H](CCCCNC(=O)OCc1ccccc1)C(N)=O)", "values": [{"measurement": "% Inhibition of Gadd45β-MKK7 binding", "setting": "Table III, modified peptides", "value": 2, "unit": "%"}]}, {"compound": "Ac-WDHW-NH2", "values": [{"measurement": "% Inhibition of Gadd45β-MKK7 binding", "setting": "[1]", "value": 50, "unit": "%"}]}, {"compound": "Ac-WEKW-NH2", "values": [{"measurement": "% Inhibition of Gadd45β-MKK7 binding", "setting": "[1]", "value": 65, "unit": "%"}]}, {"compound": "Fmoc(βAla)2-YDHL-NH2 ({Fmoc-βAla-βAla}-YDHL-NH2; SMILES CC(C)C[C@H](NC(=O)[C@H](Cc1c[nH]cn1)NC(=O)[C@H](CC(=O)O)NC(=O)[C@H](Cc1ccc(O)cc1)NC(=O)CCNC(=O)CCNC(=O)OCC1c2ccccc2-c2ccccc21)C(N)=O)", "values": [{"measurement": "% Inhibition of Gadd45β-MKK7 binding", "setting": "[2]", "value": 33, "unit": "%"}]}, {"compound": "Ac-YERW-NH2", "values": [{"measurement": "% Inhibition of Gadd45β-MKK7 binding", "setting": "[1]", "value": 59, "unit": "%"}]}, {"compound": "Ac-WEHW-NH2", "values": [{"measurement": "% Inhibition of Gadd45β-MKK7 binding", "setting": "[1]", "value": 75, "unit": "%"}]}, {"compound": "Fmoc-YDHF-NH2", "values": [{"measurement": "% Inhibition of Gadd45β-MKK7 binding", "setting": "Table III, modified peptides", "value": 58, "unit": "%"}]}, {"compound": "2CI-Z-YERF-NH2 (ClZ-YERF-NH2)", "values": [{"measurement": "% Inhibition of Gadd45β-MKK7 binding", "setting": "Table III, modified peptides", "value": 38, "unit": "%"}]}, {"compound": "Ac-YDHW-NH2", "values": [{"measurement": "% Inhibition of Gadd45β-MKK7 binding", "setting": "[1]", "value": 58, "unit": "%"}]}, {"compound": "Ac-YDRF-NH2", "values": [{"measurement": "% Inhibition of Gadd45β-MKK7 binding", "setting": "[1]", "value": 45, "unit": "%"}, {"measurement": "% Inhibition of Gadd45β-MKK7 binding", "setting": "Table III, modified peptides", "value": 19, "unit": "%"}]}, {"compound": "3-OH—4MeO-Benzoid acid-YERF-NH2 ({Benzoyl(3-OH,4-OMe)}-YERF-NH2)", "values": [{"measurement": "% Inhibition of Gadd45β-MKK7 binding", "setting": "Table III, modified peptides", "value": 86, "unit": "%"}]}, {"compound": "Ac-YEAF-NH2", "values": [{"measurement": "% Inhibition of Gadd45β-MKK7 binding", "setting": "Table III, modified peptides", "value": 13, "unit": "%"}]}, {"compound": "Ac-WEHF-NH2", "values": [{"measurement": "% Inhibition of Gadd45β-MKK7 binding", "setting": "[1]", "value": 36, "unit": "%"}]}, {"compound": "Fmoc(βAla)2-YDHC-NH2 ({Fmoc-βAla-βAla}-YDHC-NH2; SMILES NC(=O)[C@H](CS)NC(=O)[C@H](Cc1c[nH]cn1)NC(=O)[C@H](CC(=O)O)NC(=O)[C@H](Cc1ccc(O)cc1)NC(=O)CCNC(=O)CCNC(=O)OCC1c2ccccc2-c2ccccc21)", "values": [{"measurement": "% Inhibition of Gadd45β-MKK7 binding", "setting": "[2]", "value": 44, "unit": "%"}]}, {"compound": "Ac-AERF-NH2", "values": [{"measurement": "% Inhibition of Gadd45β-MKK7 binding", "setting": "Table III, modified peptides", "value": 7, "unit": "%"}]}, {"compound": "Ac-WERF-NH2", "values": [{"measurement": "% Inhibition of Gadd45β-MKK7 binding", "setting": "[1]", "value": 29, "unit": "%"}]}, {"compound": "Ac-YERFLys(Z)-NH2 (Ac-YERFK(Cbz)-NH2; SMILES CC(=O)N[C@@H](Cc1ccc(O)cc1)C(=O)N[C@@H](CCC(=O)O)C(=O)N[C@@H](CCCNC(=N)N)C(=O)N[C@@H](Cc1ccccc1)C(=O)N[C@@H](CCCCNC(=O)OCc1ccccc1)C(N)=O)", "values": [{"measurement": "% Inhibition of Gadd45β-MKK7 binding", "setting": "Table III, modified peptides", "value": 6, "unit": "%"}]}, {"compound": "Ac-YPRF-NH2", "values": [{"measurement": "% Inhibition of Gadd45β-MKK7 binding", "setting": "Table III, modified peptides", "value": 13, "unit": "%"}]}, {"compound": "Fmoc(βAla)2-YDHS-NH2 ({Fmoc-βAla-βAla}-YDHS-NH2; SMILES NC(=O)[C@H](CO)NC(=O)[C@H](Cc1c[nH]cn1)NC(=O)[C@H](CC(=O)O)NC(=O)[C@H](Cc1ccc(O)cc1)NC(=O)CCNC(=O)CCNC(=O)OCC1c2ccccc2-c2ccccc21)", "values": [{"measurement": "% Inhibition of Gadd45β-MKK7 binding", "setting": "[2]", "value": 0, "unit": "%"}]}]}
